Laboratory results published in IntAct's records for PubMed 12600646.

Molecular target: RNF216, Q9NWF9-3
Sequence (Q9NWF9 379-866): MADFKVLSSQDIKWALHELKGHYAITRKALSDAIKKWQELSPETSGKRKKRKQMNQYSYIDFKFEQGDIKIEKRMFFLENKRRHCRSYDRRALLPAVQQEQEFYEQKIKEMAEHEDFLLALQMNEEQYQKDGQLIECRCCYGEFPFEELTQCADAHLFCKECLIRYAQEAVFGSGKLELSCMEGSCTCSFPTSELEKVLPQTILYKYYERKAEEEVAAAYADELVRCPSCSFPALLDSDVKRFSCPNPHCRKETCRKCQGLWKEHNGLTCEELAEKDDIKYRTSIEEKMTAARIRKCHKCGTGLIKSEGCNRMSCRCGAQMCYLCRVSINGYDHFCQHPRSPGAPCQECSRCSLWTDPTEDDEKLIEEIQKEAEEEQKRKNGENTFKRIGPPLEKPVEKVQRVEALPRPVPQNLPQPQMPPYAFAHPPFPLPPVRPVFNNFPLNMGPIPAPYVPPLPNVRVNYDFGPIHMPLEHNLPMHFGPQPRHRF

## Virion infectivity factor (Human immunodeficiency virus type 1 group M subtype B (isolate NY5) (HIV-1)), P12504 Q105A;L106A;I107A
  effect of a mutation on the interaction: disrupting interaction
